Reference: patent US20080287363A1 (LABORATOIRES SERONO, published 2008)

B1: XCL1/lymphotactin (ligand)
chain: VGSEVSDKRTCVSLTTQRLPVSRIKTYTITEGSLRAVIFITKRGLKVCADPQATWVRDVVRSMDRKSNTRNNMIQTKPTGTQQSTNTAVTLTG
B2: CCL13/MCP-4 (ligand)
chain: not shown

Target: recombinant Δ6 evasin-4 (truncated, N-terminally 6His tagged evasin-4, amino acids 24-127), purified (Rhipicephalus sanguineus)
Assay: SPR (Biacore 3000), Δ6 evasin-4 immobilized on CM4 chip, chemokine injected

| Binder | binding result |
| --- | --- |
| B1 | no binding (tested: 0.1 µg/ml) |
| B2 | no binding (tested: 0.1 µg/ml) |
